According to PMC2641028:

Assays:
[1] = molecular target: CP-MVP-Z recombinant vaults
[2] = molecular target: CP-MVP-Z recombinant vaults; assay: ELISA

Substance	other [1] [%]	EC50 [2] [nM]
mouse IgG (Sigma) (antibody)	52	
rabbit IgG (Sigma) (antibody)	92	0.25
